Results: article PMC4689532

Legend:
Test in all cases: SPR; Biacore T100, 37°C, HBS-EP; biotinylated ligand captured with the Biotin CAPture Kit, reference biotinylated rat Cd4d3+4; purified his-tagged analyte injected at 20 μl/min, equilibrium fit Req = CRmax/(C+KD); lower concentrations did not reach equilibrium, KD likely slightly overestimated
[1] = molecular target: P. falciparum P41, AVEXIS bait/prey form (P. falciparum)
[2] = molecular target: P. vivax P41 (PVX_000995, 6-cysteine protein), entire ectodomain, AVEXIS bait/prey form (P. vivax) (UniProt A5KAP6)
[3] = molecular target: P. vivax P12 (PVX_113775, 6-cysteine protein), entire ectodomain, AVEXIS bait/prey form (P. vivax) (UniProt A5K1W7)

| Substance | Kd [1] [nM] | Kd [2] [nM] | Kd [3] [nM] |
| --- | --- | --- | --- |
| P. vivax P12 (PVX_113775), entire ectodomain, 6-His tagged, purified (from UniProt A5K1W7 24-339) (domain or fragment) | 31 | 120 | – |
| P. vivax P41 (PVX_000995), entire ectodomain, 6-His tagged, purified (from UniProt A5KAP6 22-384) (domain or fragment) | – | – | 77 |
